These are literature values, as cited in patent publication US10888616B2 (Latitude Pharmaceuticals, Inc., priority 2015, dated 2021).

The conditions of series [1]: acidic solution (pH 2-4), within 24 hours at 37° C.

Turning to “Glucagon: single-chain polypeptide of 29 amino acid residues, sequence in FIG. 1 (SEQ ID NO: 1)”, the “solubility in pure water or alcohol” value is recorded as “insoluble”. Besides, the “glucagon broken down into degradation products” value in series [1] is listed as 5-70%. Besides, the gelling in water result (pH 3 or lower) is “will aggregate to form a gel within hours”. The solubility in water result (physiological pH (pH 4-8)) is on record as “insoluble”.
